Data taken from paper PMC4259493.
Where two headings read alike, the source gives them in different places.

Columns and labels:
Assay in all cases: MST
[1] = target: α-actinin-2 wild-type, full length (human) (UniProt P35609)
[2] = target: α-actinin-2 wild-type, full length (human) (UniProt P35609); remark: listed apart in the source
[3] = target: α-actinin-2 calmodulin-like domain (CAMD, EF1-4) (human)
α-actinin-2 calmodulin-like domain (CAMD, EF1-4) (human), sequence (P35609 whole entry, the tested form may be a part): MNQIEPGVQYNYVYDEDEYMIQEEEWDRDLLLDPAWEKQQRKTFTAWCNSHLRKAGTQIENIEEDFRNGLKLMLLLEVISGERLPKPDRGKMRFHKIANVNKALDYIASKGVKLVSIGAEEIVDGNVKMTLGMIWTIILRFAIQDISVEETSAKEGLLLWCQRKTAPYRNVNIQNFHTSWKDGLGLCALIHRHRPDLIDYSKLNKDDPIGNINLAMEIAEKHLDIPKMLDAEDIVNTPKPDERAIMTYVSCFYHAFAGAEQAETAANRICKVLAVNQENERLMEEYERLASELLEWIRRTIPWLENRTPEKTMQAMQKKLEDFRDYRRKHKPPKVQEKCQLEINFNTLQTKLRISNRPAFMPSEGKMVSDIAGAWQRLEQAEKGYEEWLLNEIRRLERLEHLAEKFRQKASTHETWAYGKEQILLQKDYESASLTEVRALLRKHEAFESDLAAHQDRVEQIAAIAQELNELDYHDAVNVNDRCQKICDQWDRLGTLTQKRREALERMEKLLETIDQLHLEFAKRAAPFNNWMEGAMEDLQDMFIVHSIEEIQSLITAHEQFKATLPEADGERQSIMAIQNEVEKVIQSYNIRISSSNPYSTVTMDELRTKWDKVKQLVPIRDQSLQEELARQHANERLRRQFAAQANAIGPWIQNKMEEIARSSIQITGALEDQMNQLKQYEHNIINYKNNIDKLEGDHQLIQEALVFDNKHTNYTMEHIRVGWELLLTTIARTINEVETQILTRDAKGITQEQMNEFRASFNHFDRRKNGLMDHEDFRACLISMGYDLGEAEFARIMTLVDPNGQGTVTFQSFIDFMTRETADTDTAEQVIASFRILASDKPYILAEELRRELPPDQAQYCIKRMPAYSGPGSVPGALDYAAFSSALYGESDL

α-actinin-2 wild-type, full length (human), sequence (P35609 whole entry, the tested form may be a part): as above
titin Zr-7 construct (amino acids Lys 692 - Arg 740), sequence (Q8WZ42 692-740): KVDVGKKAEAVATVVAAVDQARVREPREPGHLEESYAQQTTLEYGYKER

Kd [1]: 0.38 µM
Kd [2]: 2.9 µM
Kd [3]: 0.24 µM
Substance: titin Zr-7 construct (amino acids Lys 692 - Arg 740) (from UniProt Q8WZ42 692-740) (domain or fragment)
